The assay concerns the target L-ferritin-M6A (mouse L-ferritin with the Mms6 iron-binding segment M6A at its C-terminus behind a glycine spacer), with the N-terminal 6-His tag (mouse | Magnetospirillum magneticum AMB-1) (UniProt Q2W8R5). Description: SEC; HiLoad 26/60 Superdex 200; 20 mM Bis-Tris pH 5.8, 500 mM KCl, 10% glycerol; oligomer judged by elution volume. On the technique in general: In gel filtration, larger molecules generally elute earlier.

Here are results for 1 substance from article PMC7677926.

A word on the stoichiometry N: it is the number of molecules, sites or subunits per partner or assembly. Regarding “L-ferritin-M6A (mouse L-ferritin with the Mms6 iron-binding segment M6A at its C-terminus behind a glycine spacer), with the N-terminal 6-His tag (from UniProt Q2W8R5 116-127)”, the stoichiometry N stood at 24.
